{"source": "paper PMC3643599", "binders": {"B1": {"name": "(UG)6 (ssRNA)", "RNA": "UGUGUGUGUGUG"}}, "key": {"[1]": {"target": "GST-TDP (101-261) (human, UniProt Q13148 101-261)", "sequence (Q13148 101-261)": "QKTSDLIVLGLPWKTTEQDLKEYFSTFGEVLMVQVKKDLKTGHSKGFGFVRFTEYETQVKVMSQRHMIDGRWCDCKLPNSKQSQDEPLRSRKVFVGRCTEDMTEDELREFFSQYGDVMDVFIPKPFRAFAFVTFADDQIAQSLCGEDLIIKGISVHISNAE", "test": "CD titration"}, "[2]": {"target": "His-TDP (101-261) (human, UniProt Q13148 101-261)", "sequence (Q13148 101-261)": "as above", "test": "lysine acetylation footprinting MS"}}, "data": [{"binder": "B1", "values": [{"measurement": "binding result", "setting": "[1]", "value": "binds"}, {"measurement": "binding result", "setting": "[2]", "value": "binds"}]}]}
